Results on 2 molecules are retold here after patent publication US20130209365A1 (ACADEMIA SINICA, published 2013).

This assay has as its target T1, BSA control protein (bovine, UniProt P02769 25-607).
T1 construct: also called bovine serum albumin
Kind of assay: phage ELISA.

T1 sequence (P02769 25-607 limits assumed): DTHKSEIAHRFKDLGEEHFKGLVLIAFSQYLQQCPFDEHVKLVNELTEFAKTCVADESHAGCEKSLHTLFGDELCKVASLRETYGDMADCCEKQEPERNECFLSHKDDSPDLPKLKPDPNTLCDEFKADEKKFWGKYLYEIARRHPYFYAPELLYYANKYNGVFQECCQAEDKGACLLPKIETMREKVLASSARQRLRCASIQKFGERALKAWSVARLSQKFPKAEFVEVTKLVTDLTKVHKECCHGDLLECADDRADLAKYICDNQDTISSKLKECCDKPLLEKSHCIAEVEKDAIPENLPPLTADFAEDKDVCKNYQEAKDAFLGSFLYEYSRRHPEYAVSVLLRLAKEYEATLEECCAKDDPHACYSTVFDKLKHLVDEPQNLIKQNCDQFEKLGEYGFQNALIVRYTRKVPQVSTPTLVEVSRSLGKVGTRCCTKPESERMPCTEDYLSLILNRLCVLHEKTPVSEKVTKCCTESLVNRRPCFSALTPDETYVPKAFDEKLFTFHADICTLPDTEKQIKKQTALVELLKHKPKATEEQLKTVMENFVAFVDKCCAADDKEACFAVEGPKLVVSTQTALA

B1: phage-displayed anti-c-Met scFv PC1 (scFv, not shown: large carriers)
scFv: MAQVQLQQSGPGLVKPSQTLSLTCDISGDSVSSNSAAWNWIRQSPSRGLEWLGRTYYRSRWYNEYAVSVRGRISINAETSKNQFSLQLNSVTPEDTAIYYCARAGFCSGGNCYPGSEDAFDLWGQGTMVTVGGGGSGGGGSGGGGSDVVMTQSPPSLSVSVGDRVTITCRASQDITNDLNWYQQKPGKAPQLLIYHASELETGVPSRFSGSGFGTDFTLTISSLQPADIATYYCQQYDDLPLTFGGGTKVEIKR
notes: tested as whole phage; also called anti-c-Met phage clone 1
On to B1, for which the binding result was “no binding”.

B2: phage-displayed anti-c-Met scFv PC21 (scFv, not shown: large carriers)
scFv: MAEVQLVESGPGLVKPSGTLSLKCDASAISMDSNYWWSWLRQPPGKGLEWIGEISHSGSTDYNPSLKSRATISIDKSKKQFFLRLKSVTAADTAVYYCAGLLSPLDAFDEWGQGTMVTVGGGGSGGGGSGGGGSDIQMTQSPSSLSASVGDRVTITCRASQRVATYLNWYQQKPGKAPNLLIYEASSLQSGVPSRFSGRRSGTDFTLTISSLQPEDFATYYCQQSYNTPYTFGQGTRLEIKR
notes: tested as whole phage; also called anti-c-Met phage clone 21
Consider B2, for which the binding result is on record as “no binding”.
